In patent publication US20180155427A1 (Novartis, published 2018):

Legend:
[1] = target: T1, human PD-1 expressed on cells (human, UniProt Q15116 25-288); assay: FACS competition binding on PD-1 expressing Jurkat cells; competitor: fluorescently labeled murine mAb BAP049; MFI of bound labeled mAb
T1 construct: whole, on cells; Treated as one molecule; also called PD-1 expressing Jurkat cells; human PD-1 transfected Jurkat cells
Experimental: The concentration of the murine mAb was determined by OD280 measurement, whereas the chimeric mAb concentrations in supernatants were determined with an ELISA using an IgG4 standard.

[2] = target: T1, human PD-1 expressed on cells; assay: competition binding assay on human PD-1-expressing 300.19 cells, competitor PD-L2; competitor PD-L2
[3] = target: T1, human PD-1 expressed on cells; assay: FACS on human PD-1 transfected Jurkat cells
[4] = target: T2, cynomolgus PD-1 expressed on cells (cynomolgus, UniProt B0LAJ3 25-288); assay: FACS on cynomolgus T cells
T2 construct: also called cynomolgus T cells; cells transfected with cynomolgus PD-1

[5] = target: T2, cynomolgus PD-1 expressed on cells; assay: FACS on cells transfected with cynomolgus PD-1
[6] = target: human PD-1-Ig fusion protein (human, UniProt Q15116 25-167); assay: ELISA
[7] = target: T1, human PD-1 expressed on cells; assay: competition binding assay on human PD-1-expressing 300.19 cells, competitor PD-L1; competitor PD-L1
[8] = target: T1, human PD-1 expressed on cells; assay: FACS blocking assay on PD-1-expressing 300.19 cells; blocked ligand at constant concentration: PD-L1-huIgG1 Fc fusion protein (legend paragraph 211 names 'PD-L1-Ig and PD-L2-Ig' for FIG. 8A); bound ligand detected with PE anti-human IgG F(ab')2
Experimental: Incubation was at 4° C. for 30 min. Bound ligand fusion proteins were detected with PE-conjugated F(ab′)2 fragment of goat anti-human IgG which doesn't recognize IgG4 mAbs (Southern Biotech 2043-09), and flow cytometry.

T1 sequence (Q15116 25-288): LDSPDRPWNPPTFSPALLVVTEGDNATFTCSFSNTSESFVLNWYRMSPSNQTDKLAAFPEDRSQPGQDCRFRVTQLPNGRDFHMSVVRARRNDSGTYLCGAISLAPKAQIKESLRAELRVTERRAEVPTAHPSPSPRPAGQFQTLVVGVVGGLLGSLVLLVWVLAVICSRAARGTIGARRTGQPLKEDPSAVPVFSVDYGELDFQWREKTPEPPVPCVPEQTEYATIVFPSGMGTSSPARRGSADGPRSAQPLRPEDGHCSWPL
T2 sequence (B0LAJ3 entry or part of it limits assumed): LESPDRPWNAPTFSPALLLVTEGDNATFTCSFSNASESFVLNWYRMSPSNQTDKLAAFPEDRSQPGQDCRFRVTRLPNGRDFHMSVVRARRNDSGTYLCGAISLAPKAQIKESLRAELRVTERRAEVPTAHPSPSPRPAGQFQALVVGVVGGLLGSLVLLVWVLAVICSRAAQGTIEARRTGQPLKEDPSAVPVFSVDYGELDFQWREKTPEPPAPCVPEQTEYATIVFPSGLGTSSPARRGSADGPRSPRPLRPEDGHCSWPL
human PD-1-Ig fusion protein, sequence (Q15116 25-167): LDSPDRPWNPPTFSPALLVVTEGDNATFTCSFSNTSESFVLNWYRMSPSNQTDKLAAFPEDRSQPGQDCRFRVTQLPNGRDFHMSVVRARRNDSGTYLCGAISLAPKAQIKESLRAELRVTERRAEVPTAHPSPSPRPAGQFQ

B1: chimeric antibody BAP049-chi (Ser) (antibody, human IgG4 S228P, kappa, V domains shown)
VH: QVQLQQSGSELVRPGASVKLSCKASGYTFTTYWMHWVRQRPGQGLEWIGNIYPGTGGSNFDEKFKNRTSLTVDTSSTTAYMHLASLTSEDSAVYYCTRWTTGTGAYWGQGTTVTVSS
VL: DIVMTQSPSSLTVTAGEKVTMSCKSSQSLLDSGNQKNFLTWYQQKPGQPPKLLIFWASTRESGVPDRFTGSGSVTDFTLTISSVQAEDLAVYYCQNDYSYPSTFGQGTKVEIKR
notes: also called Chi mAb (Ser)
B1: binds [1].

B2: murine anti-PD-1 monoclonal antibody BAP049 (antibody, V domains shown)
VH: QVQLQQSGSELVRPGASVKLSCKASGYTFTTYWMHWVRQRPGQGLEWIGNIYPGTGGSNFDEKFKNRTSLTVDTSSTTAYMHLASLTSEDSAVYYCTRWTTGTGAYWGQGTLVTVSA
VL: DIVMTQSPSSLTVTAGEKVTMSCKSSQSLLDSGNQKNFLTWYQQKPGQPPKLLIFWASTRESGVPDRFTGSGSVTDFTLTISSVQAEDLAVYYCQNDYSYPCTFGGGTKLEIK
notes: the murine constant regions are not; also called murine mAb BAP049; Mu mAb
With B2 the IC50 [2] was 0.9 nM, the Kd [3] was 0.06 nM and the Kd [4] was 0.4 nM. The Kd [5] was 0.6 nM, the Kd [6] was 0.04 nM and the IC50 [7] was 0.3 nM. For the same binder, the “IC50 (read off the curve)” value [8] was about 0.6 µg/mL.
